Assay results reported in patent publication US20200247855A1, “THERAPY AND DIAGNOSTICS” (OXFORD UNIVERSITY INNOVATION LIMITED, priority 2017, published 2020).

T1: CXCL1_HUMAN (Homo sapiens, UniProt P09341)
T1 sequence (P09341 35-107): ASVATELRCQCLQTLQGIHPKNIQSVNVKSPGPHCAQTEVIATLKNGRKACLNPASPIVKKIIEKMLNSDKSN

T2: CXCL10_HUMAN (Homo sapiens, UniProt P02778)
T2 sequence (P02778 22-98): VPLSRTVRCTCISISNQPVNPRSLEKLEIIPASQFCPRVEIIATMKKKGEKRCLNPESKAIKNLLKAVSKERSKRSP

B1: P1104_IXORI: novel CXC-binding tick CKBP, Ixodes ricinus (protein, listed as Ixodes ricinus)
chain: ESKEASASQGPGKSFKVEFCETNCTENNGVWSGCTGDCICVSVGDSKEGRCMDLGDKVIDTPVAQG
B2: P1132_IXORI: novel CXC-binding tick CKBP, Ixodes ricinus (protein, listed as Ixodes ricinus)
chain: LSDEDELFSVEYCGTNCTKQDTGSWTTCSGNCTCYHEDGKKVGLCLSTEYTDFTKFPKPTSEEIANARPLPKREKTLN
B3: P1166_IXORI: novel CXC-binding tick CKBP, Ixodes ricinus (protein, listed as Ixodes ricinus)
chain: GPETKEDKKSDVYELFTVEYCGTNCTLLTNGRWTACTGKKGTCRCYHESGEKVGLCLSTEYTDFSEYPNPKSSEIDAAAPLPRETH
B4: P1077_IXORI: novel CXC-binding tick CKBP, Ixodes ricinus (protein, listed as Ixodes ricinus)
chain: GSKQLIGPQSSTNSIKAEFCDTNCTAGTNGIWNGCSGDCFCTHVGNSTEGRCMKITGFDEYPTSEAEE
B5: P1162_IXORI: novel CXC-binding tick CKBP, Ixodes ricinus (protein, listed as Ixodes ricinus)
chain: LNDEELFTVDYCGTNCTQQPNGSWTTCPGNCSCYHEDGKTDGFCLSTEYTDFTQFPNLTSEEMDAATPRPE
B6: P1229_IXORI: novel CXC-binding tick CKBP, Ixodes ricinus (protein, listed as Ixodes ricinus)
chain: DDEFFTVDYCGMNCTLQQDGSWTPCTQKNAECKCYHESGSSVGLCLSTAYTDFNQFGDPNNSDLDAATPRHPDASSR
B7: P1134_IXORI: novel CXC-binding tick CKBP, Ixodes ricinus (protein, listed as Ixodes ricinus)
chain: NEEVFTVEYCGMNCTQKSDGTWTECSGKNKDCRCYHESDAREGLCLSTEYTDFSQFETPSNSDLEAATPRPRKTLYPVRNPHGPKTRGLGYDKRILRDRVKFLI
B8: P1096_IXORI: novel CXC-binding tick CKBP, Ixodes ricinus (protein, listed as Ixodes ricinus)
chain: HTTVTGSVEGKPNNPNEDIEVSYCRMNCTVENGVSSACSGDCVCVHRDNEPNGICVEITYFGDFGDPSQDPSIDEAAPRESVSKRRSNGES
B9: P1101_IXORI: novel CXC-binding tick CKBP, Ixodes ricinus (protein, listed as Ixodes ricinus)
chain: HTTVAGSDEDIEVSYCGMNCTVESGKSSKCSPDCVCVHEGNERDGICISITYLGDLGNPLEDPSIDLATPLAPVFQSSK
B10: P1095_IXORI: novel CXC-binding tick CKBP, Ixodes ricinus (protein, listed as Ixodes ricinus)
chain: HSPVAGSEVQKLTSDPNDDIDVSYCGMNCTVVNGKSDECSENCKCLHEGDDPKGICVAITYFGDWGDPNDDPKINEATPQTQIFEKKRK

Each molecule was assayed against T1, CXCL1_HUMAN (assay: Yeast surface display (YSD) FACS binding). Settings: FACS re-test; mean percent shift where several clones.
Parameters: label (chemical)
Method: (§1) Table 1. Tick CKBPs described in PCT/GB2017/050563 and [17]. Tick peptide sequences isolated in yeast surface display fluorescent-activated cell sorting (FACS) screens using a labelled chemokine. Identity with Evasin-1, 4 or 3 was calculated using BLAST. Abbreviations: IXORI—Ixodes ricinus, RHISA—Rhipicephalus sanguineus, AMBMA—Amblyomma maculatum, AMBPA—Amblyomma parvum, AMBTR—Amblyomma triste, AMBAM—Amblyomma americanum, AMBCA—Amblyomma cajennense, RHIPU—Rhipicephalus pulchellus. Table 2A-C. Binding characteristics of tick CKBPs previously disclosed (PCT/GB2017/050563 and [17]). All members of the human chemokine family[164] are listed in column 1. Binding to human chemokines was determined for 14 tick CKBPs using biolayer interferometry (BLI) with calculated Kd shown as Molar (Moles/Litre). Binding data for 17 other novel tick CKBPs was assayed using yeast surface display[17,166],with positive binding results shown as “YES”. For biolayer interferometry, His-tagged purified tick CKBP was bound to a Ni-NINTA sensor on an OctetRed® 384 system, and then binding to each chemokine listed (with the exception of CCL25, CCL26, CXCL16, CXCL17, CXCL4L1, XCL2) was assayed in a cross-binding screen at a chemokine concentration of 300 nM as described. For those chemokines showing binding to a tick CKBP in the cross-binding screen, binding assays were repeated using different doses of chemokine. Association, equilibrium and dissociation data were analysed using Octet software to create corresponding fitted curves, and used to calculate Kd. For yeast surface display, (YSD) background fluorescence was controlled for by using either an empty vector or by omitting the chemokine (i.e. using streptavidin-Alexa647 alone). An arbitrary threshold of >3 fold over background mean fluorescence intensity was chosen to describe confirmed re-tests. Where binding was detected data are indicated as “YES”. […] For yeast surface display data, empty cells represent chemokines that were not tested. Binding data published in relation to previously described tick CKBPs (Evasins-1, 4 and 3) is also shown for comparison in each of FIGS. 2A-C, with the relevant data obtained from publications: [20-22,32]. Table 3: Neutralisation of human chemokines by tick CKBPs previously disclosed (PCT/GB2017/050563 and [17]). Neutralising activity was determined using a quantitative THP1 cell migration assay in a 96-well Boyden chamber with chemokine in the bottom chamber as described. Cells migrating through to the bottom chamber at 4 hours were counted using flow cytometry in a 96 well plate format. IC50 for neutralisation was determined at the chemokine EC80 dose as determined using a range of tick CKBP concentrations. Data was analysed using GraphPad Prism to determine IC50, which is shown as Molar (Moles/Litre). Empty cells represent experiments not done. Table 4—Other previously described tick CKBPs. Tick CKBPs that were also described in PCT/GB2017/050563 and Singh et al. are indicated in “Notes”. Table 5.—Novel tick CKBPs of the invention. Table 6. […] The peptide sequence prefix indicates the identity, and suffix indicate the tick species as follows: AMBCA, Amblyomma cajennense and IXORI, Ixodes ricinus. […] Certain tick peptides e.g. P1074_IXORI were recovered from screens performed with more than one chemokine. Individual yeast clones recovered from the library were re-tested using a FACS (fluorescence activated cell sorting), experiment. The binding of the peptide to the chemokine was assayed by measuring the percent (%), of yeast cells expressing the given peptide that exceeded a background threshold set by measuring the fluorescence of the yeast library pool treated with streptavidin-[…] alone. When more than one independent yeast clone was isolated for a given peptide-chemokine combination, the mean percent shift was calculated and reported in column 3. […]

Molecule	Chemokines bound in yeast surface display and % cells over threshold fluorescence: CXCL1_HUMAN
B1	CXCL1_HUMAN 65%
B2	CXCL1_HUMAN 68%
B3	CXCL1_HUMAN 63%
B4	CXCL1_HUMAN 50%
B5	CXCL1_HUMAN 72%
B6	CXCL1_HUMAN 66%

These molecules were tested against T2, CXCL10_HUMAN (assay: Yeast surface display (YSD) FACS binding). Settings: FACS re-test; mean percent shift where several clones.
Method: as §1

Molecule	Chemokines bound in yeast surface display and % cells over threshold fluorescence: CXCL10_HUMAN
B7	CXCL10_HUMAN 66%
B8	CXCL10_HUMAN 50%
B9	CXCL10_HUMAN 75%

The molecules below were run against CXCL12_HUMAN (Homo sapiens, UniProt P48061) (assay: Yeast surface display (YSD) FACS binding). Settings: FACS re-test; mean percent shift where several clones.
Method: as §1

CXCL12_HUMAN, sequence (P48061 22-93): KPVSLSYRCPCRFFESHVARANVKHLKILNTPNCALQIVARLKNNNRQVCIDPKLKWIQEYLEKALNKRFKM

Molecule	Chemokines bound in yeast surface display and % cells over threshold fluorescence: CXCL12_HUMAN
B10	CXCL12_HUMAN 47%
